Test results from the supplement of paper PMC9112550, “Optimization of the antimicrobial peptide Bac7 by deep mutational scanning” (BMC Biology, 2022).
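Also: peptides expressed intracellularly from a pBAD plasmid library in pooled LB shake-flask culture, induced with 0.3% L-arabinose, DNA abundance read by NGS, three biological replicates, DESeq2 with apeglm shrinkage.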

What follows are sequences tested on Escherichia coli TOP10 (assay: shrunken log2 fold change of peptide-encoding DNA abundance (4.5 h post-induction vs induction); higher = less antimicrobial activity (less host growth inhibition)). Conditions: time post-induction: 4.5 h; library: site-saturation at positions 5, 18, 19, 20.
With RRIRTRPPRLPRPRPRPMYEPRP the “shrunken log2 fold change” value was -0.375.
With RRIRTRPPRLPRPRPRPNCGPRP the “shrunken log2 fold change” value was 0.0396.
With RRIRTRPPRLPRPRPRPNFDPRP the “shrunken log2 fold change” value was 0.232.
RRIRTRPPRLPRPRPRPNGLPRP was tested, and the “shrunken log2 fold change” value was -0.00146.
For RRIRTRPPRLPRPRPRPNHFPRP, the “shrunken log2 fold change” value was -0.316.
For RRIRTRPPRLPRPRPRPNKLPRP, the “shrunken log2 fold change” value was -0.127.
For RRIRTRPPRLPRPRPRPNKSPRP, the “shrunken log2 fold change” value was -0.315.
RRIRTRPPRLPRPRPRPNKWPRP was tested, and the “shrunken log2 fold change” value was 0.0213.
With RRIRTRPPRLPRPRPRPNLCPRP the “shrunken log2 fold change” value was 0.108.
In the case of RRIRTRPPRLPRPRPRPNNVPRP, the “shrunken log2 fold change” value is reported as -0.227.
RRIRTRPPRLPRPRPRPNRMPRP was tested, and the “shrunken log2 fold change” value was -0.331.
With RRIRTRPPRLPRPRPRPNTAPRP the “shrunken log2 fold change” value was -0.0235.
RRIRTRPPRLPRPRPRPNTGPRP was tested, and the “shrunken log2 fold change” value was -0.388.
In the case of RRIRTRPPRLPRPRPRPNWPPRP, the “shrunken log2 fold change” value is reported as -0.0423.
RRIRTRPPRLPRPRPRPNYRPRP was tested, and the “shrunken log2 fold change” value was -0.0168.
With RRIRTRPPRLPRPRPRPPAAPRP the “shrunken log2 fold change” value was 0.353.
With RRIRTRPPRLPRPRPRPPADPRP the “shrunken log2 fold change” value was 0.217.
In the case of RRIRTRPPRLPRPRPRPPCYPRP, the “shrunken log2 fold change” value is reported as -0.139.
For RRIRTRPPRLPRPRPRPPDVPRP, the “shrunken log2 fold change” value was 0.176.
RRIRTRPPRLPRPRPRPPEGPRP was tested, and the “shrunken log2 fold change” value was 0.308.
RRIRTRPPRLPRPRPRPPFWPRP was tested, and the “shrunken log2 fold change” value was 0.379.
In the case of RRIRTRPPRLPRPRPRPPGQPRP, the “shrunken log2 fold change” value is reported as 0.622.
For RRIRTRPPRLPRPRPRPPHFPRP, the “shrunken log2 fold change” value was 0.7.
For RRIRTRPPRLPRPRPRPPHLPRP, the “shrunken log2 fold change” value was 0.0444.
RRIRTRPPRLPRPRPRPPIAPRP was tested, and the “shrunken log2 fold change” value was 0.328.
RRIRTRPPRLPRPRPRPPITPRP was tested, and the “shrunken log2 fold change” value was -0.235.
In the case of RRIRTRPPRLPRPRPRPPKAPRP, the “shrunken log2 fold change” value is reported as 0.0856.
RRIRTRPPRLPRPRPRPPKKPRP was tested, and the “shrunken log2 fold change” value was 0.0946.
With RRIRTRPPRLPRPRPRPPKLPRP the “shrunken log2 fold change” value was -0.0543.
In the case of RRIRTRPPRLPRPRPRPPLTPRP, the “shrunken log2 fold change” value is reported as 0.13.
For RRIRTRPPRLPRPRPRPPLVPRP, the “shrunken log2 fold change” value was 0.184.
In the case of RRIRTRPPRLPRPRPRPPNCPRP, the “shrunken log2 fold change” value is reported as 0.0905.
In the case of RRIRTRPPRLPRPRPRPPNHPRP, the “shrunken log2 fold change” value is reported as -0.000973.
For RRIRTRPPRLPRPRPRPPPCPRP, the “shrunken log2 fold change” value was 0.292.
With RRIRTRPPRLPRPRPRPPPEPRP the “shrunken log2 fold change” value was 0.643.
With RRIRTRPPRLPRPRPRPPPIPRP the “shrunken log2 fold change” value was 0.451.
RRIRTRPPRLPRPRPRPPQMPRP was tested, and the “shrunken log2 fold change” value was 0.185.
For RRIRTRPPRLPRPRPRPPRYPRP, the “shrunken log2 fold change” value was 0.152.
RRIRTRPPRLPRPRPRPPSDPRP was tested, and the “shrunken log2 fold change” value was 0.498.
With RRIRTRPPRLPRPRPRPPVQPRP the “shrunken log2 fold change” value was 0.0423.
In the case of RRIRTRPPRLPRPRPRPPWCPRP, the “shrunken log2 fold change” value is reported as 0.28.
In the case of RRIRTRPPRLPRPRPRPQAGPRP, the “shrunken log2 fold change” value is reported as 0.107.
In the case of RRIRTRPPRLPRPRPRPQCDPRP, the “shrunken log2 fold change” value is reported as -0.184.
RRIRTRPPRLPRPRPRPQCMPRP was tested, and the “shrunken log2 fold change” value was -0.133.
For RRIRTRPPRLPRPRPRPQDCPRP, the “shrunken log2 fold change” value was 0.0249.
RRIRTRPPRLPRPRPRPQDRPRP was tested, and the “shrunken log2 fold change” value was -0.0332.
With RRIRTRPPRLPRPRPRPQEKPRP the “shrunken log2 fold change” value was -0.0148.
In the case of RRIRTRPPRLPRPRPRPQFCPRP, the “shrunken log2 fold change” value is reported as -0.486.
For RRIRTRPPRLPRPRPRPQFWPRP, the “shrunken log2 fold change” value was -0.00273.
With RRIRTRPPRLPRPRPRPQGQPRP the “shrunken log2 fold change” value was -0.186.
RRIRTRPPRLPRPRPRPQGSPRP was tested, and the “shrunken log2 fold change” value was -0.0161.
For RRIRTRPPRLPRPRPRPQHEPRP, the “shrunken log2 fold change” value was -0.00128.
RRIRTRPPRLPRPRPRPQKCPRP was tested, and the “shrunken log2 fold change” value was -0.0262.
RRIRTRPPRLPRPRPRPQPMPRP was tested, and the “shrunken log2 fold change” value was 0.267.
For RRIRTRPPRLPRPRPRPQQPPRP, the “shrunken log2 fold change” value was 0.153.
In the case of RRIRTRPPRLPRPRPRPQQSPRP, the “shrunken log2 fold change” value is reported as -0.0133.
For RRIRTRPPRLPRPRPRPQRHPRP, the “shrunken log2 fold change” value was 0.19.
In the case of RRIRTRPPRLPRPRPRPQRSPRP, the “shrunken log2 fold change” value is reported as 0.309.
RRIRTRPPRLPRPRPRPQWQPRP was tested, and the “shrunken log2 fold change” value was 0.0822.
For RRIRTRPPRLPRPRPRPQWRPRP, the “shrunken log2 fold change” value was 0.207.
With RRIRTRPPRLPRPRPRPQYEPRP the “shrunken log2 fold change” value was 0.00772.
For RRIRTRPPRLPRPRPRPRCKPRP, the “shrunken log2 fold change” value was 0.0432.
For RRIRTRPPRLPRPRPRPRCQPRP, the “shrunken log2 fold change” value was 0.113.
RRIRTRPPRLPRPRPRPRCYPRP was tested, and the “shrunken log2 fold change” value was -0.429.
For RRIRTRPPRLPRPRPRPRDEPRP, the “shrunken log2 fold change” value was 0.146.
In the case of RRIRTRPPRLPRPRPRPRDHPRP, the “shrunken log2 fold change” value is reported as 0.0565.
With RRIRTRPPRLPRPRPRPRDTPRP the “shrunken log2 fold change” value was -0.0276.
RRIRTRPPRLPRPRPRPREEPRP was tested, and the “shrunken log2 fold change” value was 0.368.
For RRIRTRPPRLPRPRPRPRFDPRP, the “shrunken log2 fold change” value was 0.332.
For RRIRTRPPRLPRPRPRPRFWPRP, the “shrunken log2 fold change” value was 0.0622.
With RRIRTRPPRLPRPRPRPRHCPRP the “shrunken log2 fold change” value was -0.0723.
In the case of RRIRTRPPRLPRPRPRPRIWPRP, the “shrunken log2 fold change” value is reported as 0.104.
RRIRTRPPRLPRPRPRPRKGPRP was tested, and the “shrunken log2 fold change” value was 0.333.
RRIRTRPPRLPRPRPRPRNFPRP was tested, and the “shrunken log2 fold change” value was 0.172.
In the case of RRIRTRPPRLPRPRPRPRNVPRP, the “shrunken log2 fold change” value is reported as -0.128.
In the case of RRIRTRPPRLPRPRPRPRPAPRP, the “shrunken log2 fold change” value is reported as 0.555.
For RRIRTRPPRLPRPRPRPRPLPRP, the “shrunken log2 fold change” value was 0.295.
For RRIRTRPPRLPRPRPRPRPYPRP, the “shrunken log2 fold change” value was -0.223.
With RRIRTRPPRLPRPRPRPRQCPRP the “shrunken log2 fold change” value was 0.153.
For RRIRTRPPRLPRPRPRPRTLPRP, the “shrunken log2 fold change” value was -0.121.
RRIRTRPPRLPRPRPRPRTMPRP was tested, and the “shrunken log2 fold change” value was 0.0616.
RRIRTRPPRLPRPRPRPRTVPRP was tested, and the “shrunken log2 fold change” value was 0.00464.
RRIRTRPPRLPRPRPRPRVGPRP was tested, and the “shrunken log2 fold change” value was 0.364.
RRIRTRPPRLPRPRPRPRVLPRP was tested, and the “shrunken log2 fold change” value was 0.242.
RRIRTRPPRLPRPRPRPRVSPRP was tested, and the “shrunken log2 fold change” value was 0.0622.
For RRIRTRPPRLPRPRPRPRWSPRP, the “shrunken log2 fold change” value was 0.0798.
In the case of RRIRTRPPRLPRPRPRPRYGPRP, the “shrunken log2 fold change” value is reported as -0.284.
For RRIRTRPPRLPRPRPRPRYSPRP, the “shrunken log2 fold change” value was 0.0915.
With RRIRTRPPRLPRPRPRPSATPRP the “shrunken log2 fold change” value was 0.273.
In the case of RRIRTRPPRLPRPRPRPSCYPRP, the “shrunken log2 fold change” value is reported as -0.654.
In the case of RRIRTRPPRLPRPRPRPSEEPRP, the “shrunken log2 fold change” value is reported as 0.0771.
With RRIRTRPPRLPRPRPRPSEWPRP the “shrunken log2 fold change” value was -0.0236.
In the case of RRIRTRPPRLPRPRPRPSFWPRP, the “shrunken log2 fold change” value is reported as 0.277.
For RRIRTRPPRLPRPRPRPSGAPRP, the “shrunken log2 fold change” value was 0.251.
For RRIRTRPPRLPRPRPRPSHLPRP, the “shrunken log2 fold change” value was -0.411.
For RRIRTRPPRLPRPRPRPSHQPRP, the “shrunken log2 fold change” value was 0.185.
For RRIRTRPPRLPRPRPRPSHRPRP, the “shrunken log2 fold change” value was -0.463.
RRIRTRPPRLPRPRPRPSICPRP was tested, and the “shrunken log2 fold change” value was -0.899.
With RRIRTRPPRLPRPRPRPSIYPRP the “shrunken log2 fold change” value was -0.513.
RRIRTRPPRLPRPRPRPSKEPRP was tested, and the “shrunken log2 fold change” value was -0.598.
For RRIRTRPPRLPRPRPRPSKFPRP, the “shrunken log2 fold change” value was -0.624.
In the case of RRIRTRPPRLPRPRPRPSKKPRP, the “shrunken log2 fold change” value is reported as -0.174.
With RRIRTRPPRLPRPRPRPSNIPRP the “shrunken log2 fold change” value was -0.329.
RRIRTRPPRLPRPRPRPSPDPRP was tested, and the “shrunken log2 fold change” value was -0.331.
With RRIRTRPPRLPRPRPRPSQNPRP the “shrunken log2 fold change” value was -0.00631.
RRIRTRPPRLPRPRPRPSQRPRP was tested, and the “shrunken log2 fold change” value was 0.0168.
RRIRTRPPRLPRPRPRPSRDPRP was tested, and the “shrunken log2 fold change” value was -0.139.
In the case of RRIRTRPPRLPRPRPRPSRHPRP, the “shrunken log2 fold change” value is reported as -0.481.
RRIRTRPPRLPRPRPRPSSYPRP was tested, and the “shrunken log2 fold change” value was -0.0381.
